Measured values published in patent US12214059B2, “Cleavable radioligands for targeting cell surface receptors and uses thereof” (Full-Life Te[…] Limited, priority 2021, dated 2025).

Tests used:
[1] = Ex-vivo mouse plasma stability study of ^177Lu-labeled compounds; type: in vitro ADME; conditions: 37° C.
Procedure: Plasma Stability Study (Mouse and Human)
Mouse blood was collected via cardiac puncture of the left ventricle. Blood was placed into heparin-coated microfuge tubes and then centrifuged at 3500 rpm for 10 min to separate plasma for stability studies. Human plasma was purchased directly.
At each time point (0, 1, 2, 4, 24, 48 72 h), an aliquot of 25 μL sample was taken and mixed with 100 μL methanol containing 1% formic acid, vertex for 30-60 sec, then centrifuged at 20000 rpm for 10 min. 100 μL supernatant was collected and diluted with 40 μL H2O. 100 μL of the resulting mixture was injected to radio-HPLC for stability assessment, as shown examples FIG. 2 and FIG. 3. The best-fit T½ value of test compounds were calculated by fitting the data with linear or non-linear regression using GraphPad Prism 8.0.1.

[2] = system: PC-3 PIP tumor-bearing mice; assay: Biodistribution study in SCID mice bearing PC3-PIP tumor; type: in vivo, mouse; conditions: for T/K at 4 h (tumor uptake/kidney uptake) / T at 24 h (tumor uptake) / T/K at 24 h (tumor uptake/kidney uptake) / T at 96 h (tumor uptake) / T/K at 96 h (tumor uptake/kidney uptake): PC3 PIP tumor-bearing mice
Procedure: Biodistribution Study in SCID Mice Bearing PC3-PIP Tumor
Severe combined immunodeficient (ICR-SCID) mice from the Institute of Cancer Research (Taconic Farms, Germantown, NY) were utilized for these studies. […] These mice received bilateral subcutaneous rear flank injections of approximately 10×10^6 PC-3 PIP cells (prostate cancer cell PC-3 stably expressing human PSMA) suspended in 100 μL of 0.9% NaCl. […] The tissues and organs were weighed, counted in a PerkinElmer Wizard 3 automatic γ counter, and the percent injected dose (% ID) and % ID/g of each organ or tissue were calculated, as shown in Tables 5-24 and FIG. 1 and FIG. 2.

[3] = molecular target: T1, PSMA (Homo sapiens, UniProt Q04609); assay: Cell-based radioligand competitive binding assay (^125I-C-8, LNCaP cells); conditions: C-1 = 1.00
T1 construct: host or cells: LNCaP cells
T1 sequence (Q04609 whole entry): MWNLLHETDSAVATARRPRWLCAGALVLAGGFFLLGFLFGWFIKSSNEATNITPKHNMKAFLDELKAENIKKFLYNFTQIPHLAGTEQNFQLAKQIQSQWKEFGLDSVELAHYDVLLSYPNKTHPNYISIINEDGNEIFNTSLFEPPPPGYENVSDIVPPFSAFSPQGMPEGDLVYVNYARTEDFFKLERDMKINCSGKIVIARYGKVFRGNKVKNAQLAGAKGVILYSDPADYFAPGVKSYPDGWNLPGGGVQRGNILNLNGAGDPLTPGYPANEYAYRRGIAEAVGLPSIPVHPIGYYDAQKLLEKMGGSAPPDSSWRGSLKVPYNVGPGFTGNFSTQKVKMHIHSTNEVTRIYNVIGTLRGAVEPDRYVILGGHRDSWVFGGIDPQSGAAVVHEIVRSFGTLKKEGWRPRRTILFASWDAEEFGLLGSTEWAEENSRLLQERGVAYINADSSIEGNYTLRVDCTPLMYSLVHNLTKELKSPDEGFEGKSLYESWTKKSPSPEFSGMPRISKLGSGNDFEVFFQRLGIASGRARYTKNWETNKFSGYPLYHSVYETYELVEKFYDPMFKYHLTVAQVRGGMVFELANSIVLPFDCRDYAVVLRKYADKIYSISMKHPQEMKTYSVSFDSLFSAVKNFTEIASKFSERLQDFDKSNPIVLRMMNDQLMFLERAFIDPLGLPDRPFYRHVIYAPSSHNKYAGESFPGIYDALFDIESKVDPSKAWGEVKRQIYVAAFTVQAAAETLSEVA
Procedure: The culture medium was replaced with fresh medium every 2-3 days. Experiments were performed with cells at 70-80% confluence.
The final volume in each well was maintained at 200 μL and insufficient volume was adjusted by the binding buffer.

[4] = system: LNCap tumor-bearing mice; assay: Biodistribution study in CB-17 SCID mice bearing LNCap tumor; type: in vivo, mouse
Procedure: Biodistribution Study in CB-17 SCID Mice Bearing LNCap Tumor
All animal care and experimental procedure were performed by following the animal protocols approved by the ethics committee of China Institute of Radiation Protection. The CB-17 SCID mice (Charles River, Beijing) were utilized for these studies. […] These mice received subcutaneous rear flank injections of approximately 4×10^6 LNCap cells suspended in 200 μL of phosphate-buffered saline (PBS) and Matrigel (Corning) (1/1).

[5] = * = value obtained using nonlinear regression
[6] = based on the mean value of the IC50 number

Row | Molecule | % Remaining 0 min [1] [%] | % Remaining 1 h [1] [%] | % Remaining 4 h [1] [%] | % Remaining 24 h [1] [%] | % Remaining 48 h [1] [%] | % Remaining 72 h [1] [%] | T/K at 4 h (tumor uptake/kidney uptake) [2] | T at 24 h (tumor uptake) [2] | T/K at 24 h (tumor uptake/kidney uptake) [2] | T at 96 h (tumor uptake) [2] | T/K at 96 h (tumor uptake/kidney uptake) [2] | Relative Binding Affinity [3, 6] | Relative Binding Affinity ([3]; relative) | also measured
1 | O=C(O)CC[C@H](NC(=O)N[C@@H](CCCCNC(=O)[C@H](Cc1ccc2ccccc2c1)NC(=O)[C@H]1CC[C@H](CNC(=O)[C@H](CCCCNC(=O)CN2CCN(CC(=O)O)CCN(CC(=O)O)CCN(CC(=O)O)CC2)NC(=O)[C@H](CCC(=O)O)NC(=O)CCCc2ccc(I)cc2)CC1)C(=O)O)C(=O)O [Example C-2, 4pIBA-Glu-Lys(DOTA)-Trx-2NaI-eKuE, reference compound] | 100 | 100 | 100 | 100 | 100 | 100 | 0.3 | 41.1 | 1.0 | 20.0 | 3.7 | 1.78 | 1.78 | T½ (h) [1, 5]: Stable; uptake ratio between tumor to kidney ([2]; compared to PSMA-617 (C-1)): poor uptake ratio between tumor to kidney
2 | Cc1ccc(CCCC(=O)NCCCC[C@H](NC(=O)CN2CCN(CC(=O)O)CCN(CC(=O)O)CCN(CC(=O)O)CC2)C(=O)NCC2CCC(C(=O)N[C@@H](Cc3ccc4ccccc4c3)C(=O)NCCCC[C@H](NC(=O)N[C@@H](CCC(=O)O)C(=O)O)C(=O)O)CC2)cc1 (stereo partly shown) [Example C-10, DOTA-Lys(pTBA)-Trx-2NaI-eKuE] | – | – | – | – | – | – | – | – | – | – | – | – | 0.92 | T at 24 h (tumor uptake) ([4]; LNCap tumor-bearing mice, 24 h): 46.5; T/K at 24 h (tumor uptake/kidney uptake) ([4]; LNCap tumor-bearing mice, 24 h): 0.89; T at 96 h (tumor uptake) ([4]; LNCap tumor-bearing mice, 96 h): 34.9; T/K at 96 h (tumor uptake/kidney uptake) ([4]; LNCap tumor-bearing mice, 96 h): 3.17; uptake ratio between tumor to kidney ([4]; compared to PSMA-617 (C-1)): poor uptake ratio between tumor to kidney
3 | O=C(O)CC[C@H](NC(=O)N[C@@H](CCCCNC(=O)[C@H](Cc1ccc2ccccc2c1)NC(=O)[C@H]1CC[C@H](CNC(=O)[C@H](CCCCNC(=O)CN2CCN(CC(=O)O)CCN(CC(=O)O)CCN(CC(=O)O)CC2)NC(=O)CCCOC(=O)CNC(=O)[C@H](CCC(=O)O)NC(=O)CCCc2ccc(I)cc2)CC1)C(=O)O)C(=O)O [Example I-2, 4pIBA-Glu-ESL1-Lys(DOTA)-Trx-2NaI-eKuE] | 100 | 95.6 | 93.2 | 76.5 | 67.5 | 57.3 | 0.6 | 32.4 | 5.0 | 9.8 | 10.1 | 1.59 | 0.75 | T½ [1, 5]: 80.4 h; uptake ratio between tumor to kidney ([2]; mice bearing PC3-PIP tumor, compared to HTK01169 (C-2)): improved uptake ratio between tumor to kidney
4 | O=C(O)CC[C@H](NC(=O)N[C@@H](CCCCNC(=O)[C@H](Cc1ccc2ccccc2c1)NC(=O)[C@H]1CC[C@H](CNC(=O)[C@H](CCCCNC(=O)CCCOC(=O)CNC(=O)CN2CCN(CC(=O)O)CCN(CC(=O)O)CCN(CC(=O)O)CC2)NC(=O)[C@H](CCC(=O)O)NC(=O)CCCc2ccc(I)cc2)CC1)C(=O)O)C(=O)O [Example I-3, 4pIBA-Glu-Lys(-ESL1-DOTA)-Trx-2NaI-eKuE] | 100 | 88.6 | 54.8 | 13.0 | 9.30 | 3.99 | 0.3 | 13.9 | 0.8 | 6.3 | 4.0 | 1.30 | 1.30 | T½ (h) [1, 5]: 4.9* h
5 | O=C(O)CC[C@H](NC(=O)N[C@@H](CCCCNC(=O)[C@H](Cc1ccc2ccccc2c1)NC(=O)[C@H]1CC[C@H](CNC(=O)[C@H](CCCCNC(=O)CCC(=O)NCCSSCCNC(=O)CN2CCN(CC(=O)O)CCN(CC(=O)O)CCN(CC(=O)O)CC2)NC(=O)[C@H](CCC(=O)O)NC(=O)CCCc2ccc(I)cc2)CC1)C(=O)O)C(=O)O [Example I-4, 4pIBA-Glu-Lys(-SSL1-DOTA)-Trx-2NaI-eKuE] | – | – | – | – | – | – | 0.1 | 0.79 | 0.2 | 0.3 | 1.2 | 0.95 | 0.95 | –
6 | O=C(O)CC[C@H](NC(=O)N[C@@H](CCCCNC(=O)[C@H](Cc1ccc2ccccc2c1)NC(=O)[C@H]1CC[C@H](CNC(=O)COCCOCCNC(=O)[C@H](CCCCNC(=O)CCCOC(=O)CNC(=O)CN2CCN(CC(=O)O)CCN(CC(=O)O)CCN(CC(=O)O)CC2)NC(=O)[C@H](CCCCNC(=O)COCCOCCNC(=O)COCCOCCNC(=O)[C@H](CCC(=O)O)NC(=O)CCCc2ccc(I)cc2)NC(=O)COCCOCCNC(=O)COCCOCCNC(=O)[C@H](CCC(=O)O)NC(=O)CCCc2ccc(I)cc2)CC1)C(=O)O)C(=O)O [Example I-7, 4pIBA-Glu-OEG-OEG-Lys(-OEG-OEG-Glu-4pIBA)-Lys(-ESL1-DOTA)-OEG-Trx-2NaI-eKuE] | – | – | – | – | – | – | 0.7 | 16.7 | 0.9 | 2.6 | 1.4 | 0.56 | 0.54 | –
7 | O=C(O)CCCCCCCCCCCCCCCCC(=O)N[C@@H](CCC(=O)NCCOCCOCC(=O)NCCOCCOCC(=O)N[C@@H](CCCCNC(=O)CCCOC(=O)CNC(=O)CNC(=O)CNC(=O)CNC(=O)CN1CCN(CC(=O)O)CCN(CC(=O)O)CCN(CC(=O)O)CC1)C(=O)NCCOCCOCC(=O)NC[C@H]1CC[C@H](C(=O)N[C@@H](Cc2ccc3ccccc3c2)C(=O)NCCCC[C@H](NC(=O)N[C@@H](CCC(=O)O)C(=O)O)C(=O)O)CC1)C(=O)O [Example I-46, HO-C18-gGlu-OEG-OEG-Lys(-ESL1-Gly-Gly-Gly-DOTA)-OEG-Trx-2NaI-eKuE] | 100 | 95.1 | 93.5 | 81.9 | 70.6 | 55.9 | – | – | – | – | – | – | – | T½ (h) [1, 5]: 102* h
8 | (HO-C18-gGlu-Lys(-OEG-DOTA)-OEG-OEG-OEG-NH2CH2CH2NH-TMA(-OEG-Trx-2NaI-eKuE)2 [Example C-7, reference compound] | – | – | – | – | – | – | – | – | – | – | – | 0.14 | 0.14 | –
9 | DOTA-gGlu(-eLys-4pIBA)-Trx-2NaI-eKuE [Example C-9, reference compound] | – | – | – | – | – | – | – | – | – | – | – | 0.92 | – | –
10 | HO-C18-gGlu-OEG-OEG-Gly-5hPA-Lys(DOTA)-OEG-Trx-2NaI-eKuE [Example I-49] | – | – | – | – | – | – | – | – | – | – | – | 0.09 | 0.09 | –
11 | HO-C18-gGlu-OEG-OEG-OEG-Lys(DOTA)-OEG-Trx-2NaI-eKuE [Example C-6, reference compound] | – | – | – | – | – | – | – | – | – | – | – | 0.05 | 0.05 | –
12 | [HO-C20-gGlu-Lys(-ESL1-ESL1-ESL1-DOTA)-OEG-OEG-OEG-NH2CH2CH2NH—]-TMA-(-OEG-Trx-2NaI-eKuE)2 [Example I-44] | – | – | – | – | – | – | – | – | – | – | – | 0.13 | – | –
